The target of assay [1] is T1, recombinant mouse Trop-2-his protein (Cat.: 50922-M08H, Beijing Yiqiao Shenzhou Science and Technology Co., … (mouse, UniProt Q8BGV3 25-270)).
T1 construct: Bought protein; not shown: his tag
T1 sequence (looked up): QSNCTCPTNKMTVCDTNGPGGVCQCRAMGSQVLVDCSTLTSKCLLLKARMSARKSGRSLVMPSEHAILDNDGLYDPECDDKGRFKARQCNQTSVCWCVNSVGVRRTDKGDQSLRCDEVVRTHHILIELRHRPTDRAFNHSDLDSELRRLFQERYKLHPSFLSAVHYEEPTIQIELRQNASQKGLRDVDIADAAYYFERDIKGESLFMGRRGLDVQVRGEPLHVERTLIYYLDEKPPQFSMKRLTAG
Description: ELISA, coated mouse Trop-2-his, purified murine antibody 1 µg/ml. How it is done: (§1) Washed with PBS 3 times, the plates were blocked with the added 5% BSA PBS at 37° C. for 60 min, and then washed 3 times with PBST. The 15 purified murine antibodies were diluted to 1 μg/ml with PBS. Controls as follows were set: (1) Positive Control (PC): Sacituzumab (WHO Drug Information (Vol. 31, No. 1, 2017), SEQ ID NO: 39 and SEQ ID NO: 40), a version having murine IgG constant region, […]; (2) Negative Control (NC): an antibody from an irrelevant hybridoma, 1 μg/ml; (3) blank control: PBS. After incubation at 37° C. for 60 min, the plates were washed 4 times with PBST. […] Afterwards, the plates were washed with PBST 4 times, and TMB substrate was added for color development at 37° C. for 10 min. Then 2M HCl was added to stop reaction; and absorbances at 450 nm and at 630 nm (as reference wavelength) were read, and A450 nm-630 nm values of the wells in the plates were recorded.
For orientation: In an ELISA, binding on a coated surface is turned into a signal by an enzyme label.

Assay [2] addresses T1, recombinant mouse Trop-2-his protein …. Description: ELISA, plate coated with recombinant mouse Trop-2-his, HRP-goat anti-mouse IgG (Fc gamma), OD450/630. The method, then:
as §1

The target in assay [3] is T2, recombinant human Trop-2-his protein (ACCESSION NO.: NP_002344.2, AA 1-274) (human, UniProt P09758 27-274).
T2 construct: range 27-274; also called recombinant human Trop-2 protein; recombinant human Trop-2 extracellular domain; not shown: his tag
T2 sequence (looked up): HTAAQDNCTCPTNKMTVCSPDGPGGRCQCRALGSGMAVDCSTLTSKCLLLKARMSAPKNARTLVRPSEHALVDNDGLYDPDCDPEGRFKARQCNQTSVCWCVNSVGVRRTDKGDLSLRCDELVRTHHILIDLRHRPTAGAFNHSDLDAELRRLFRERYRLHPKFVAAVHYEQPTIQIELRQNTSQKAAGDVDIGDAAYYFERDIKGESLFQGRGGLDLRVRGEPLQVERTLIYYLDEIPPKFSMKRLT
Briefly: BLI, antibody on AHC sensor, Trop-2-his 23, 30, 45, 60 nM. The method, then:
Affinities of the antibodies were determined by an assay including capturing Fc fragments of the antibodies with anti-human IgG Fc capture (AHC) biosensors using Octet QKe system instrument from Fortebio.
For the assay, each of the antibodies (h23-12, h4-3, and control antibody Sacituzumab) was diluted to 4 μg/ml in PBS, and was allowed to flow through the surface of an AHC biosensor (Cat.: 18-0015, PALL) for 120 s. Recombinant human Trop-2-his protein (ACCESSION NO.: NP_002344.2, AA 1-274) was used as a mobile phase. The Trop-2-his protein was used in following concentrations which corresponded to different antibodies: in case of h23-12, the Trop-2 was used in concentrations of 23, 30, 45, and 75 nM; in case of h4-3, it was used in concentrations of 23, 30, 45, and 60 nM; and in case of Sacituzumab, it was used in concentrations of 23, 30, 45, and 75 nM. The binding time was 100 s and the dissociation time was 300 s. When the assay was finished, data from which the response values of blank control had been deducted were fitted to a 1:1 Langmuir binding model using software, and then kinetic constants for antigen-antibody binding were calculated.
For orientation: In BLI a coated tip is dipped into the sample, and binding shifts an interference pattern.

For assay [4], the target named is T2, recombinant human Trop-2-his protein …. Description: BLI, antibody on AHC sensor, Trop-2-his 60 nM. How it is done:
5-6 days after cell transfection, culture supernatants were purified through ProA affinity chromatography column to obtain different humanized antibodies. Affinities of the obtained antibodies were determined by an assay including capturing Fc fragments of the antibodies with anti-human IgG Fc capture (AHC) biosensors using Octet QKe system instrument from Fortebio. For the assay, each of the humanized antibodies and control antibody Sacituzumab was diluted to 4 μg/ml in PBS, and was allowed to flow through the surface of an AHC biosensor (Cat.: 18-0015, PALL) for 120 s. Recombinant human Trop-2-his protein (ACCESSION NO.: NP_002344.2, AA 1-274) was used as a mobile phase, and its concentration was 60 nM. The binding time was 100 s and the dissociation time was 300 s. When the assay was finished, data from which the response values of blank control had been deducted were fitted to a 1:1 Langmuir binding model using software, and then kinetic constants for antigen-antibody binding were calculated.
Affinities of the antibodies obtained from the combinations of mutants of murine antibody 23-12, chimeric antibody ch4-3 and control antibody Sacituzumab to recombinant human Trop-2-his protein were determined by ForteBio (Table 8).

Assay [5] has the same target. Description: ELISA, coated human Trop-2-his 1 µg/ml. How it is done: (§2) Washed with PBS 3 times, the plates were blocked with the added 5% BSA PBS at 37° C. for 60 min, and then washed 3 times with PBST. Different concentrations of h23-12 (serial dilutions of 14 concentrations obtained through 3-fold serially diluting a solution with an initial concentration of 10 μg/ml), h4-3 (serial dilutions of 12 concentrations obtained through 3-fold serially diluting a solution with an initial concentration of 3 μg/ml), and Sacituzumab (serial dilutions of 12 concentrations obtained through 3-fold serially diluting a solution with an initial concentration of 3 μg/ml) were added into the plates, with each concentration provided in a parallel well. The plates were incubated at 37° C. for 60 min, and then were washed 4 times with PBST. 1:5000 dilution of H1RP-anti-human Fc (Cat.: 109-035-098, Jackson ImmunoResearch) was added into the plates for incubation at 37° C. for 30 min. Afterwards, the plates were washed with PBST 4 times, and TMB substrate was added for color development at 37° C. for 10 min. Then 2M HCl was added to stop reaction; and absorbances at 450 nm and at 630 nm (as reference wavelength) were read, and A450 nm-630 nm values of the wells in the plates were recorded.

Assay [6] concerns the target T3, recombinant cynomolgus Trop-2-his protein (ACCESSION NO.: UniProtKB-A0A2K5UE71, AA 1-272) (cynomolgus, UniProt A0A2K5UE71 1-272).
T3 construct: The printed range begins at residue 1; not shown: his tag
T3 sequence: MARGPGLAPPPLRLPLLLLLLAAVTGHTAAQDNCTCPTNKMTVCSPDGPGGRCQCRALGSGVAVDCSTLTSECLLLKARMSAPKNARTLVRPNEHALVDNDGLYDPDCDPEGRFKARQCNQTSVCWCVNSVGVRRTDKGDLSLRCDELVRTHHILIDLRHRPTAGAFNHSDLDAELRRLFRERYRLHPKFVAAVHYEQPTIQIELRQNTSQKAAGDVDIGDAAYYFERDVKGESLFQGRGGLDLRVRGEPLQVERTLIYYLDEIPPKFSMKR
Description: ELISA, coated cynomolgus Trop-2-his 1 µg/ml. How it is done: as §2

For assay [7], the target named is T1, recombinant mouse Trop-2-his protein …. Briefly: ELISA, coated mouse Trop-2-his 1 µg/ml. How it is done: as §2

B1: m17-1 (antibody, mouse IgG1, V domains shown)
VH: EVKLVESGGVLVKPGGSLKLSCAASGFTFSDSAMSWVRQTPEKRLEWVASISRGDDTYYPDSVKGRITISRDFARNILYLQMTSLRSEDTAMYYCTRDRFGFAYWGQGTLVTVSA
VL: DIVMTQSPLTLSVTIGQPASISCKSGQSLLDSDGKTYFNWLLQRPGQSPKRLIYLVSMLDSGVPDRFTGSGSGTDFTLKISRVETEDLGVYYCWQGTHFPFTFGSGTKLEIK
notes: also called murine antibody 17-1
For B1, the binding result in assay [1] is on record as “binds”.

B2: PC (antibody, V domains shown)
VH: QVQLQQSGSELKKPGASVKVSCKASGYTFTNYGMNWVKQAPGQGLKWMGWINTYTGEPTYTDDFKGRFAFSLDTSVSTAYLQISSLKADDTAVYFCARGGFGSSYWYFDVWGQGSLVTVSS
VL: DIQLTQSPSSLSASVGDRVSITCKASQDVSIAVAWYQQKPGKAPKLLIYSASYRYTGVPDRFSGSGSGTDFTLTISSLQPEDFAVYYCQQHYITPLTFGAGTKVEIK
notes: not the human IgG1 Sacituzumab m5; also called Positive Control (PC); Sacituzumab, a version having murine IgG constant region; not shown: murine IgG heavy-chain constant region and murine light-chain constant region of this version
B2: in assay [2], the binding result is recorded as “no binding (tested: 1 µg/ml (paragraph 111 prints '1 g/ml'))”.

B3: h4-3-1 (antibody, human IgG1, kappa, V domains shown)
VH: EVQLVQSGPEVKKPGASVKVSCKASGFTFTDYVIGWVRQAPGQGLEWIGEIYLGSGTIYYTEKFKGRVTMTADTSTSTAYMELSSLRSEDTAVYYCARGSIFPFDYWGQGTLVTVSS
VL: DIQLTQSPSSLSASVGDRVTITCSASSSVSYMYWYQQKPGKAPKLLIYDTSTLASGVPSRFSGSGSGTDFTLTISSLQPEDFATYYCQQWSSYPYTFGQGTKLEIKR
notes: also called CDR grafted antibody 4-3
As for B3, in assay [3], the Kd is 0.545 nM, the koff turned out to be 0.000146 s⁻¹ and the kon is 267000 M⁻¹ s⁻¹. The dissociation constant (Kd) in assay [4] was 0.304 nM. Further, the EC50 in assay [5] stood at 0.0469 nM. Moreover, the EC50 in assay [6] came to 0.0461 nM. Moreover, the binding result in assay [7] was “no binding (tested: up to 3 µg/ml)”.

The term Kd denotes the concentration at which binding is half-saturated. One may read the koff as a measure of how fast the partners let go of each other. What is called kon is a measure of how fast the partners come together. By EC50 is commonly meant the concentration needed to bring the measured effect to its halfway point.
